According to patent US20200087367A1 (ACCELERON PHARMA, published 2020):

T1: BMP10 (human, UniProt O95393 317-424)
T1 construct: also called hBMP-10; hBMP10
T1 sequence: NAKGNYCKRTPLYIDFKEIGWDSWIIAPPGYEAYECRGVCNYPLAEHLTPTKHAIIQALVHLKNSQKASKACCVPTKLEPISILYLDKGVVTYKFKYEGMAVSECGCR

T2: BMP9 (human, UniProt Q9UK05 320-429)
T2 construct: also called hBMP-9; hBMP9
T2 sequence (looked up): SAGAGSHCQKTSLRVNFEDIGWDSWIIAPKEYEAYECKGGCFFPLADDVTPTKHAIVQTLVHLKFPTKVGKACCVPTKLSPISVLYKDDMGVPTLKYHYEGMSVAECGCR

T3: BMP6 (human, UniProt P22004 382-513, limits assumed)
T3 sequence (looked up): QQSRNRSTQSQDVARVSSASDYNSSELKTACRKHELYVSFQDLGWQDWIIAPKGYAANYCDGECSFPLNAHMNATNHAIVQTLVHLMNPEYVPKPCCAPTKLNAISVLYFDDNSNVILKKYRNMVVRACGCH

T4: BMP10pro(22-315)-mFc (human, UniProt O95393 22-315)
T4 construct: also called mouse Fc equivalent construct; not shown: optional linker and mouse immunoglobulin G1 Fc domain
T4 sequence: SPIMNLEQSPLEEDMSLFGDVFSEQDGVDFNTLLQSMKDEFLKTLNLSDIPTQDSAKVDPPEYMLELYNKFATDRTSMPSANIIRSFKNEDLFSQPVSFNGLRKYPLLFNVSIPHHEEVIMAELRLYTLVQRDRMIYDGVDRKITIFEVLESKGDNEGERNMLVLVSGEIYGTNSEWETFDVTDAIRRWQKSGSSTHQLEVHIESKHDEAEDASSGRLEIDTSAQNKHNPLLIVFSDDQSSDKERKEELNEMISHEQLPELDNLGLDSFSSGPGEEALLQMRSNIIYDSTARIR

T5: BMP10pro(22-312)-mFc (human, UniProt O95393 22-312)
T5 construct: also called mouse Fc equivalent construct; not shown: optional linker and mouse immunoglobulin G1 Fc domain
T5 sequence: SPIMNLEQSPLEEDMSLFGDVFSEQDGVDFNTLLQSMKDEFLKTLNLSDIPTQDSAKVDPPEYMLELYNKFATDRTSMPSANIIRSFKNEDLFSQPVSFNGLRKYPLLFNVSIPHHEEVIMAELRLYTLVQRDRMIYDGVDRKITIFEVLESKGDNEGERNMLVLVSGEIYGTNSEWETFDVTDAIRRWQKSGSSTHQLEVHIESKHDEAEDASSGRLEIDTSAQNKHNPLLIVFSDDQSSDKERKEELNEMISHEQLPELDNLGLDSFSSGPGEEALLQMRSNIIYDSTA

T6: hENG(26-586) (human, UniProt P17813 26-586)
T6 construct: Bought protein, a human variant with no Fc domain; also called R&D Systems, catalog #1097-EN
T6 sequence: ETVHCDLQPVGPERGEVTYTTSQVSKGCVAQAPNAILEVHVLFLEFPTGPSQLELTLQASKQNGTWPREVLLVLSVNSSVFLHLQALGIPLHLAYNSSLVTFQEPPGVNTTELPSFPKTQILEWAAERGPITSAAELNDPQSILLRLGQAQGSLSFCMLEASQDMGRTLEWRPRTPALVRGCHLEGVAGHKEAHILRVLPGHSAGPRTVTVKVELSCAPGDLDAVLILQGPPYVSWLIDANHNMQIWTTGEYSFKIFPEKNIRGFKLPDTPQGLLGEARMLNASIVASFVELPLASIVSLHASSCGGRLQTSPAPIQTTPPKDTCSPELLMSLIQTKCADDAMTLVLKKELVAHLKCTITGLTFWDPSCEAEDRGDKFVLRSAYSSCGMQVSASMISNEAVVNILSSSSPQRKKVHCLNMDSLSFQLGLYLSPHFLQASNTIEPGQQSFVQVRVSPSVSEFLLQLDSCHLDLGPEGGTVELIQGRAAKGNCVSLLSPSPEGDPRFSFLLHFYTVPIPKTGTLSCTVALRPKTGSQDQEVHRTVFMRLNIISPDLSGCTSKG

T7: hENG(26-437)-hFc (human, UniProt P17813 26-437)
T7 construct: HEK 293, purified; not shown: linker and human IgG1 Fc domain
T7 sequence: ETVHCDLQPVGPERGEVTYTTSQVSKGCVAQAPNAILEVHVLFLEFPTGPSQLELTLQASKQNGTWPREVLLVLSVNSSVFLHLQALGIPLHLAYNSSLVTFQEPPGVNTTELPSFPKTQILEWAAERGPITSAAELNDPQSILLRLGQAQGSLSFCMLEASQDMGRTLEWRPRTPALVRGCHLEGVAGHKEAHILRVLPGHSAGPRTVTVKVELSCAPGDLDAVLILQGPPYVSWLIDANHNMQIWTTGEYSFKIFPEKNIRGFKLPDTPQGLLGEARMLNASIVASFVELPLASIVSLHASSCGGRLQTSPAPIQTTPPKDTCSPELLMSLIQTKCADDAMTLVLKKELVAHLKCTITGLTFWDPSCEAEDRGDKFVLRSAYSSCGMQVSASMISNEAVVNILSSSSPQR

B1: ALK1-mFc (Fc fusion, mouse, UniProt Q61288 23-119, looked up)
chain: DLAKPSKLVNCTCESPHCKRPFCQGSWCTVVLVREQGRHPQVYRGCGSLNQELCLGRPTEFLNHHCCYRSFCNHNVSLMLEATQTPSEEPEVDAHLP
notes: extracellular domain; Mouse ALK1 fused to a murine Fc domain with a linker; also called mALK1-mFc; not shown: linker and murine Fc domain
B2: hENG(360-437)-hFc (Fc fusion)
chain: QTKCADDAMTLVLKKELVAHLKCTITGLTFWDPSCEAEDRGDKFVLRSAYSSCGMQVSASMISNEAVVNILSSSSPQR
notes: Expressed in COS cells, not purified; not shown: linker and human IgG1 Fc domain
B3: hENG(258-346)-hFc (Fc fusion)
chain: YVSWLIDANHNMQIWTTGEYSFKIFPEKNIRGFKLPDTPQGLLGEARMLNASIVASFVELPLASIVSLHASSCGGRLQTSPAPIQTTPP
notes: HEK 293, purified; not shown: linker and human IgG1 Fc domain
B4: BMP5 (ligand, human, UniProt P22003 317-454, looked up)
chain: AANKRKNQNRNKSSSHQDSSRMSSVGDYNTSEQKQACKKHELYVSFRDLGWQDWIIAPEGYAAFYCDGECSFPLNAHMNATNHAIVQTLVHLMFPDHVPKPCCAPTKLNAISVLYFDDSSNVILKKYRNMVVRSCGCH
B5: BMP7 (ligand, human, UniProt P18075 293-431, looked up)
chain: STGSKQRSQNRSKTPKNQEALRMANVAENSSSDQRQACKKHELYVSFRDLGWQDWIIAPEGYAAYYCEGECAFPLNSYMNATNHAIVQTLVHFINPETVPKPCCAPTQLNAISVLYFDDSSNVILKKYRNMVVRACGCH
notes: also called hBMP-7
B6: BMP2 (ligand, human, UniProt P12643 283-396, looked up)
chain: QAKHKQRKRLKSSCKRHPLYVDFSDVGWNDWIVAPPGYHAFYCHGECPFPLADHLNSTNHAIVQTLVNSVNSKIPKACCVPTELSAISMLYLDENEKVVLKNYQDMVVEGCGCR
notes: also called hBMP-2
B7: hBMP-2/7 (ligand, human)
chain 1: B6 chain
chain 2: B5 chain
B8: TGF-β3 (ligand, human, UniProt P10600 301-412, looked up)
chain: ALDTNYCFRNLEENCCVRPLYIDFRQDLGWKWVHEPKGYYANFCSGPCPYLRSADTTHSTVLGLYNTLNPEASASPCCVPQDLEPLTILYYVGRTPKVEQLSNMVVKSCKCS
notes: also called hTGF-β3
B9: ActRIIB-mFc (Fc fusion, not shown: a dimerising Fc or GST)
chain: GRGEAETRECIYYNANWELERTNQSGLERCEGEQDKRLHCYASWRNSSGTIELVKKGCWLDDFNCYDRQECVATEENPQVYFCCCEGNFCNERFTHLPEAGGPEVTYEPPPTAPT
B10: hENG(360-457)-hFc (Fc fusion)
chain: QTKCADDAMTLVLKKELVAHLKCTITGLTFWDPSCEAEDRGDKFVLRSAYSSCGMQVSASMISNEAVVNILSSSSPQRKKVHCLNMDSLSFQLGLYLS
notes: as for B2
B11: ActRIIB-hFc (Fc fusion)
chain: GRGEAETRECIYYNANWELERTNQSGLERCEGEQDKRLHCYASWRNSSGTIELVKKGCWLDDFNCYDRQECVATEENPQVYFCCCEGNFCNERFTHLPEAGGPEVTYEPPPTAPTGGGTHTCPPCPAPELLGGPSVFLFPPKPKDTLMISRTPEVTCVVVDVSHEDPEVKFNWYVDGVEVHNAKTKPREEQYNSTYRVVSVLTVLHQDWLNGKEYKCKVSNKALPVPIEKTISKAKGQPREPQVYTLPPSREEMTKNQVSLTCLVKGFYPSDIAVEWESNGQPENNYKTTPPVLDSDGSFFLYSKLTVDKSRWQQGNVFSCSVMHEALHNHYTQKSLSLSPGK
notes: Extracellular domain of human ActRIIB, linker, human Fc
B12: TGF-β2 (ligand, human, UniProt P61812 303-414, looked up)
chain: ALDAAYCFRNVQDNCCLRPLYIDFKRDLGWKWIHEPKGYNANFCAGACPYLWSSDTQHSRVLSLYNTINPEASASPCCVSQDLEPLTILYYIGKTPKIEQLSNMIVKSCKCS
notes: also called hTGF-β2
B13: activin A (ligand, human, UniProt P08476 311-426, looked up)
chain: GLECDGKVNICCKKQFFVSFKDIGWNDWIIAPSGYHANYCEGECPSHIAGTSGSSLSFHSTVINHYRMRGHSPFANLKSCCVPTKLRPMSMLYYDDGQNIIKKDIQNMIVEECGCS
notes: also called hActivin A

Legend:
BMP5 = target: B4; experiment: SPR (Biacore), ligand amine-coupled to CM5 chip, Fc fusion injected
BMP10 [1] = target: T1, BMP10; experiment: as above
BMP9 [2] = target: T2, BMP9; experiment: as above
BMP6 = target: T3, BMP6; experiment: as above
BMP10 [3] = target: T1, BMP10; experiment: SPR, captured hENG-hFc, soluble BMP10; '-' = Binding undetectable
Experimental: (§1) SPR methodology was used to screen these hENG-hFc protein variants for high-affinity binding to human BMP9 and BMP10. In these experiments, captured hENG-hFc proteins were exposed to soluble BMP9 or BMP10 at 100 nM each.

BMP9 [4] = target: T2, BMP9; experiment: SPR, captured hENG-hFc, soluble BMP9; '-' = Binding undetectable
Experimental: as §1

BMP10pro(22-315)-mFc = target: T4, BMP10pro(22-315)-mFc; experiment: SPR (Biacore), BMP10pro-Fc captured by anti-Fc antibody, ligand injected
Experimental: (§2) The BMP10pro-Fc proteins were separately was captured onto the system using an anti-Fc antibody, and ligands were injected and allowed to flow over the captured receptor protein. […] The mouse Fc equivalent constructs behaved similarly. […] The affinity of BMP10pro(22-315)-hFc for BMP3b was not assessed.

BMP10pro(22-312)-mFc = target: T5, BMP10pro(22-312)-mFc; experiment: as above
Experimental: as §2

hENG(26-586) = target: T6, hENG(26-586); experiment: SPR (Biacore), immobilized hENG(26-586), soluble ligand; '-' = binding undetectable
Excerpt: Considered a co-receptor, ENG is widely thought to function by facilitating the binding of TGF-β1 and -3 to multi-protein complexes of type I and type II receptors. To investigate the possibility of direct ligand binding by isolated ENG, surface plasmon resonance (SPR) methodology (Biacore™ instrument) was used to screen for binding of captured proteins comprising the full-length extracellular domain of ENG to a variety of soluble human TGF-β family ligands.

hENG(26-437)-hFc = target: T7, hENG(26-437)-hFc; experiment: SPR ligand screen; '-' = Binding undetectable

B1
binding result (BMP5): no binding
binding result (BMP10 [1]): binds
binding result (BMP9 [2]): binds
binding result (BMP6): no binding

B2
binding result (BMP10 [3]): no binding (tested: 100 nM)
binding result (BMP9 [4]): no binding (tested: 100 nM)

B3
binding result (BMP10 [3]): no binding (tested: 100 nM)
binding result (BMP9 [4]): no binding (tested: 100 nM)

B4
binding result (BMP10pro(22-315)-mFc): binds
binding result (BMP10pro(22-312)-mFc): binds

B5
binding result (hENG(26-586)): no binding (tested: 25 nM)
binding result (hENG(26-437)-hFc): no binding (tested: 100 nM)

B6
binding result (hENG(26-586)): no binding (tested: 25 nM)
binding result (hENG(26-437)-hFc): no binding (tested: 100 nM)

B7
binding result (hENG(26-586)): no binding (tested: 25 nM)
binding result (hENG(26-437)-hFc): no binding (tested: 100 nM)

B8
binding result (hENG(26-586)): no binding (tested: 25 nM)
binding result (hENG(26-437)-hFc): no binding (tested: 50 nM)

B9
binding result (BMP5): binds

B10
binding result (BMP10 [3]): no binding (tested: 100 nM)
binding result (BMP9 [4]): no binding (tested: 100 nM)

B11
Kd (BMP5): 2920 pM
Kd (BMP10 [1]): 17.3 pM
Kd (BMP9 [2]): 33.5 pM
Kd (BMP6): 164 pM

B12
binding result (hENG(26-586)): no binding (tested: 25 nM)
binding result (hENG(26-437)-hFc): no binding (tested: 100 nM)

B13
binding result (hENG(26-586)): no binding (tested: 25 nM)
binding result (hENG(26-437)-hFc): no binding (tested: 100 nM)
